This is an account of results in US20160114035A1 (published 2016).

Among the targets are DRB1*0404; DRB1*0101; DRB1*0701; DRB1*0301; DRB1*0405; DRB1*1501; DRB1*1101; DRB1*1302; DRB1*0802; DRB1*0401; DRB5*0101; DRB4*0101; DRB1*0901.
Experiment in all cases: binding to purified HLA

As for AAAHFVAANTLHAAA [H4.N9.H12], the 50% inhibitory concentration (IC50) with DRB1*0404 stood at 6.8 nM; with DRB1*0101 it was 4.1 nM; in the test with DRB1*0701, 76 nM; in the test with DRB1*0301, 361 nM; in the test with DRB1*0405 it was 18 nM; in the test with DRB1*1501, 79 nM. The IC50 with DRB1*1101 amounted to 22 nM; with DRB1*1302, 47 nM; with DRB1*0802, 17 nM; with DRB1*0401, 4.5 nM; with DRB5*0101 it was 33 nM; with DRB4*0101, 862 nM. Besides, the IC50 with DRB1*0901 stood at 37 nM.

What is called IC50 is the midpoint of a concentration-inhibition curve. A lower IC50 goes with greater potency.
